# Experimental data published in patent US20180155451A1 (published 2018).
# T1: FcγRIIb extracellular domain with C-terminal His tag (human, UniProt P31994 43-217)
# T1 construct: extracellular domain; Expressed in FreeStyle293 cells; analyte in the Biacore assay; also called FcgRIIb; 2b; not shown: His tag at the C terminus
# T1 sequence (looked up): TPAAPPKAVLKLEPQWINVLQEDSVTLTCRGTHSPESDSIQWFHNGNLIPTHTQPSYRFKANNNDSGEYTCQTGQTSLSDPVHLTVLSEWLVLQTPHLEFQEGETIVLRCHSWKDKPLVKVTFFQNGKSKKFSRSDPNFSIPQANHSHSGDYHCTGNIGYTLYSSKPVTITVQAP
# Legend:
# [1] = molecular target: T1, FcγRIIb extracellular domain with …; assay: SPR (Biacore), antibody captured on antigen-peptide chip, FcγR as analyte; relative binding
# [2] = molecular target: T2, FcγRIa extracellular domain with C-terminal His tag (human, UniProt P12314 16-292); assay: as above
# T2 construct: extracellular domain; Expressed in FreeStyle293 cells; analyte in the Biacore assay; also called FcgRI; 1a; not shown: His tag at the C terminus
# T2 sequence (P12314 16-292): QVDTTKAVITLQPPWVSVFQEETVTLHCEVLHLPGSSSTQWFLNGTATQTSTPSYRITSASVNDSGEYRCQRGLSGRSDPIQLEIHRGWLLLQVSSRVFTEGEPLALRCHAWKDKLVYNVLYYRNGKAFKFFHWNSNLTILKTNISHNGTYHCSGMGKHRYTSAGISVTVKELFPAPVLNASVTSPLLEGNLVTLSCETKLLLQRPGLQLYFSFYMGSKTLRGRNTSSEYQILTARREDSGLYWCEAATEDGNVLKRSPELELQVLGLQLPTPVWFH
He/Con_2b [1],He/Con_1a [2],Binder
74.5 % of GpH7-A5/GpH7-B3/GpL16-k0 (=100),108 % of GpH7-A5/GpH7-B3/GpL16-k0 (=100),"GpH7-A5/GpH7-B3 variant Y300_07I/GpL16-k0 (He Ab) (antibody, human IgG1, kappa, Heterodimerized anti-glypican-3 IgG1; the mutation stands in the GpH7-B3 chain only) heavy 1: not shown heavy 2: not shown light: DIVMTQSPLSLPVTPGEPASISCQASESLVHSNRNTYLHWYLQKPGQSPQLLIYKVSNRFSGVPDRFSGSGSGTDFTLKISRVEAEDVGVYYCSQNTHVPPTFGQGTKVEIERTVAAPSVFIFPPSDEQLKSGTASVVCLLNNFYPREAKVQWKVDNALQSGNSQESVTEQDSKDSTYSLSSTLTLSKADYEKHKVYACEVTHQGLSSPVTKSFNRGEC"
95.7 % of GpH7-A5/GpH7-B3/GpL16-k0 (=100),102 % of GpH7-A5/GpH7-B3/GpL16-k0 (=100),"GpH7-A5/GpH7-B3 variant S324_07I/GpL16-k0 (He Ab) (antibody, human IgG1, kappa, Heterodimerized anti-glypican-3 IgG1; the mutation stands in the GpH7-B3 chain only) heavy 1: not shown heavy 2: not shown light: DIVMTQSPLSLPVTPGEPASISCQASESLVHSNRNTYLHWYLQKPGQSPQLLIYKVSNRFSGVPDRFSGSGSGTDFTLKISRVEAEDVGVYYCSQNTHVPPTFGQGTKVEIERTVAAPSVFIFPPSDEQLKSGTASVVCLLNNFYPREAKVQWKVDNALQSGNSQESVTEQDSKDSTYSLSSTLTLSKADYEKHKVYACEVTHQGLSSPVTKSFNRGEC"
53.9 % of GpH7-A5/GpH7-B3/GpL16-k0 (=100),111 % of GpH7-A5/GpH7-B3/GpL16-k0 (=100),"GpH7-A5/GpH7-B3 variant Y300_13S/GpL16-k0 (He Ab) (antibody, human IgG1, kappa, Heterodimerized anti-glypican-3 IgG1; the mutation stands in the GpH7-B3 chain only) heavy 1: not shown heavy 2: not shown light: DIVMTQSPLSLPVTPGEPASISCQASESLVHSNRNTYLHWYLQKPGQSPQLLIYKVSNRFSGVPDRFSGSGSGTDFTLKISRVEAEDVGVYYCSQNTHVPPTFGQGTKVEIERTVAAPSVFIFPPSDEQLKSGTASVVCLLNNFYPREAKVQWKVDNALQSGNSQESVTEQDSKDSTYSLSSTLTLSKADYEKHKVYACEVTHQGLSSPVTKSFNRGEC"
55.6 % of GpH7-A5/GpH7-B3/GpL16-k0 (=100),112 % of GpH7-A5/GpH7-B3/GpL16-k0 (=100),"GpH7-A5/GpH7-B3 variant Y300_14T/GpL16-k0 (He Ab) (antibody, human IgG1, kappa, Heterodimerized anti-glypican-3 IgG1; the mutation stands in the GpH7-B3 chain only) heavy 1: not shown heavy 2: not shown light: DIVMTQSPLSLPVTPGEPASISCQASESLVHSNRNTYLHWYLQKPGQSPQLLIYKVSNRFSGVPDRFSGSGSGTDFTLKISRVEAEDVGVYYCSQNTHVPPTFGQGTKVEIERTVAAPSVFIFPPSDEQLKSGTASVVCLLNNFYPREAKVQWKVDNALQSGNSQESVTEQDSKDSTYSLSSTLTLSKADYEKHKVYACEVTHQGLSSPVTKSFNRGEC"
51.6 % of GpH7-A5/GpH7-B3/GpL16-k0 (=100),107 % of GpH7-A5/GpH7-B3/GpL16-k0 (=100),"GpH7-A5/GpH7-B3 variant Y300_11K/GpL16-k0 (He Ab) (antibody, human IgG1, kappa, Heterodimerized anti-glypican-3 IgG1; the mutation stands in the GpH7-B3 chain only) heavy 1: not shown heavy 2: not shown light: DIVMTQSPLSLPVTPGEPASISCQASESLVHSNRNTYLHWYLQKPGQSPQLLIYKVSNRFSGVPDRFSGSGSGTDFTLKISRVEAEDVGVYYCSQNTHVPPTFGQGTKVEIERTVAAPSVFIFPPSDEQLKSGTASVVCLLNNFYPREAKVQWKVDNALQSGNSQESVTEQDSKDSTYSLSSTLTLSKADYEKHKVYACEVTHQGLSSPVTKSFNRGEC"
78.3 % of GpH7-A5/GpH7-B3/GpL16-k0 (=100),103 % of GpH7-A5/GpH7-B3/GpL16-k0 (=100),"GpH7-A5/GpH7-B3 variant S324_02A/GpL16-k0 (He Ab) (antibody, human IgG1, kappa, Heterodimerized anti-glypican-3 IgG1; the mutation stands in the GpH7-B3 chain only) heavy 1: not shown heavy 2: not shown light: DIVMTQSPLSLPVTPGEPASISCQASESLVHSNRNTYLHWYLQKPGQSPQLLIYKVSNRFSGVPDRFSGSGSGTDFTLKISRVEAEDVGVYYCSQNTHVPPTFGQGTKVEIERTVAAPSVFIFPPSDEQLKSGTASVVCLLNNFYPREAKVQWKVDNALQSGNSQESVTEQDSKDSTYSLSSTLTLSKADYEKHKVYACEVTHQGLSSPVTKSFNRGEC"
73.9 % of GpH7-A5/GpH7-B3/GpL16-k0 (=100),117 % of GpH7-A5/GpH7-B3/GpL16-k0 (=100),"GpH7-A5/GpH7-B3 variant Y300_03V/GpL16-k0 (He Ab) (antibody, human IgG1, kappa, Heterodimerized anti-glypican-3 IgG1; the mutation stands in the GpH7-B3 chain only) heavy 1: not shown heavy 2: not shown light: DIVMTQSPLSLPVTPGEPASISCQASESLVHSNRNTYLHWYLQKPGQSPQLLIYKVSNRFSGVPDRFSGSGSGTDFTLKISRVEAEDVGVYYCSQNTHVPPTFGQGTKVEIERTVAAPSVFIFPPSDEQLKSGTASVVCLLNNFYPREAKVQWKVDNALQSGNSQESVTEQDSKDSTYSLSSTLTLSKADYEKHKVYACEVTHQGLSSPVTKSFNRGEC"
93.2 % of GpH7-A5/GpH7-B3/GpL16-k0 (=100),112 % of GpH7-A5/GpH7-B3/GpL16-k0 (=100),"GpH7-A5/GpH7-B3 variant Y300_09D/GpL16-k0 (He Ab) (antibody, human IgG1, kappa, Heterodimerized anti-glypican-3 IgG1; the mutation stands in the GpH7-B3 chain only) heavy 1: not shown heavy 2: not shown light: DIVMTQSPLSLPVTPGEPASISCQASESLVHSNRNTYLHWYLQKPGQSPQLLIYKVSNRFSGVPDRFSGSGSGTDFTLKISRVEAEDVGVYYCSQNTHVPPTFGQGTKVEIERTVAAPSVFIFPPSDEQLKSGTASVVCLLNNFYPREAKVQWKVDNALQSGNSQESVTEQDSKDSTYSLSSTLTLSKADYEKHKVYACEVTHQGLSSPVTKSFNRGEC"
48.4 % of GpH7-A5/GpH7-B3/GpL16-k0 (=100),116 % of GpH7-A5/GpH7-B3/GpL16-k0 (=100),"GpH7-A5/GpH7-B3 variant Y300_01G/GpL16-k0 (He Ab) (antibody, human IgG1, kappa, Heterodimerized anti-glypican-3 IgG1; the mutation stands in the GpH7-B3 chain only) heavy 1: not shown heavy 2: not shown light: DIVMTQSPLSLPVTPGEPASISCQASESLVHSNRNTYLHWYLQKPGQSPQLLIYKVSNRFSGVPDRFSGSGSGTDFTLKISRVEAEDVGVYYCSQNTHVPPTFGQGTKVEIERTVAAPSVFIFPPSDEQLKSGTASVVCLLNNFYPREAKVQWKVDNALQSGNSQESVTEQDSKDSTYSLSSTLTLSKADYEKHKVYACEVTHQGLSSPVTKSFNRGEC"
73.6 % of GpH7-A5/GpH7-B3/GpL16-k0 (=100),113 % of GpH7-A5/GpH7-B3/GpL16-k0 (=100),"GpH7-A5/GpH7-B3 variant Y300_08L/GpL16-k0 (He Ab) (antibody, human IgG1, kappa, Heterodimerized anti-glypican-3 IgG1; the mutation stands in the GpH7-B3 chain only) heavy 1: not shown heavy 2: not shown light: DIVMTQSPLSLPVTPGEPASISCQASESLVHSNRNTYLHWYLQKPGQSPQLLIYKVSNRFSGVPDRFSGSGSGTDFTLKISRVEAEDVGVYYCSQNTHVPPTFGQGTKVEIERTVAAPSVFIFPPSDEQLKSGTASVVCLLNNFYPREAKVQWKVDNALQSGNSQESVTEQDSKDSTYSLSSTLTLSKADYEKHKVYACEVTHQGLSSPVTKSFNRGEC"
